# Measured values as given in the supplement of paper PMC9112550, “Optimization of the antimicrobial peptide Bac7 by deep mutational scanning” (BMC Biology, 2022).
# System: Escherichia coli TOP10
# Test: shrunken log2 fold change of peptide-encoding DNA abundance (4.5 h post-induction vs induction); higher = less antimicrobial activity (less host growth inhibition)
# Settings: time post-induction: 4.5 h; library: site-saturation at positions 5, 18, 19, 20
# 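Also: peptides expressed intracellularly from a pBAD plasmid library in pooled LB shake-flask culture, induced with 0.3% L-arabinose, DNA abundance read by NGS, three biological replicates, DESeq2 with apeglm shrinkage.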
row,Sequence,shrunken log2 fold change
1,RRIRGRPPRLPRPRPRPPNHPRP,0.942
2,RRIRWRPPRLPRPRPRPKTCPRP,0.174
3,RRIRLRPPRLPRPRPRPKKIPRP,-0.104
4,RRIRHRPPRLPRPRPRPTGEPRP,-0.0103
5,RRIRYRPPRLPRPRPRPHCYPRP,-0.426
6,RRIRMRPPRLPRPRPRPVEEPRP,0.292
7,RRIRSRPPRLPRPRPRPLIQPRP,-0.319
8,RRIRWRPPRLPRPRPRPAKDPRP,0.0218
9,RRIRIRPPRLPRPRPRPCMKPRP,-1.01
10,RRIRMRPPRLPRPRPRPNYYPRP,-0.576
11,RRIRCRPPRLPRPRPRPTACPRP,-0.0786
12,RRIRARPPRLPRPRPRPIQLPRP,-0.0651
13,RRIRYRPPRLPRPRPRPGRVPRP,-0.106
14,RRIRYRPPRLPRPRPRPREDPRP,-0.126
15,RRIRRRPPRLPRPRPRPIWYPRP,0.00744
16,RRIRSRPPRLPRPRPRPLFLPRP,-0.00337
17,RRIRGRPPRLPRPRPRPYVTPRP,0.0521
18,RRIRYRPPRLPRPRPRPRMYPRP,-0.627
19,RRIRPRPPRLPRPRPRPTIMPRP,-0.335
20,RRIRCRPPRLPRPRPRPNPIPRP,-0.423
21,RRIRDRPPRLPRPRPRPDYVPRP,-0.0518
22,RRIRERPPRLPRPRPRPVREPRP,0.242
23,RRIRIRPPRLPRPRPRPPMGPRP,0.0153
24,RRIRFRPPRLPRPRPRPHGDPRP,0.0644
25,RRIRVRPPRLPRPRPRPSEVPRP,-0.138

row,Sequence,shrunken log2 fold change
1,RRIRQRPPRLPRPRPRPLLGPRP,0.158
2,RRIRFRPPRLPRPRPRPLVTPRP,-0.318
3,RRIRVRPPRLPRPRPRPEGTPRP,-0.00568
4,RRIRIRPPRLPRPRPRPGHLPRP,-0.101
5,RRIRGRPPRLPRPRPRPFWVPRP,0.15
6,RRIRLRPPRLPRPRPRPVPQPRP,0.238
7,RRIRERPPRLPRPRPRPPSAPRP,0.632
8,RRIRIRPPRLPRPRPRPTGHPRP,-0.116
9,RRIRSRPPRLPRPRPRPSYTPRP,-0.437
10,RRIRKRPPRLPRPRPRPFPKPRP,0.169
11,RRIRYRPPRLPRPRPRPHMVPRP,-0.126
12,RRIRHRPPRLPRPRPRPTYQPRP,0.0668
13,RRIRSRPPRLPRPRPRPLDWPRP,0.262
14,RRIRHRPPRLPRPRPRPKWAPRP,0.279
15,RRIRKRPPRLPRPRPRPKAPPRP,0.62
16,RRIRCRPPRLPRPRPRPDTMPRP,0.00262
17,RRIRFRPPRLPRPRPRPIRDPRP,0.0144
18,RRIRVRPPRLPRPRPRPFQHPRP,-0.131
19,RRIRDRPPRLPRPRPRPLTWPRP,0.24
20,RRIRKRPPRLPRPRPRPADVPRP,0.127
21,RRIRNRPPRLPRPRPRPIVPPRP,-0.382
22,RRIRSRPPRLPRPRPRPNNWPRP,-0.0732
23,RRIRHRPPRLPRPRPRPQHHPRP,-0.87
24,RRIRTRPPRLPRPRPRPLSHPRP,-0.833
25,RRIRPRPPRLPRPRPRPVHHPRP,-0.218

row,Sequence,shrunken log2 fold change
1,RRIRQRPPRLPRPRPRPETQPRP,0.0133
2,RRIRMRPPRLPRPRPRPTWYPRP,-0.112
3,RRIRDRPPRLPRPRPRPMHKPRP,0.0101
4,RRIRRRPPRLPRPRPRPAFFPRP,0.58
5,RRIRPRPPRLPRPRPRPDYTPRP,-0.957
6,RRIRGRPPRLPRPRPRPGCWPRP,1.39
7,RRIRGRPPRLPRPRPRPDTHPRP,-0.156
8,RRIRMRPPRLPRPRPRPPFSPRP,0.239
9,RRIRRRPPRLPRPRPRPHEDPRP,0.0653
10,RRIRWRPPRLPRPRPRPKNCPRP,-0.122
11,RRIRSRPPRLPRPRPRPSKPPRP,-0.432
12,RRIRLRPPRLPRPRPRPQAGPRP,-0.0299
13,RRIRWRPPRLPRPRPRPDHLPRP,0.08
14,RRIRRRPPRLPRPRPRPHTDPRP,-0.215
15,RRIRRRPPRLPRPRPRPIFLPRP,0.0228
16,RRIRKRPPRLPRPRPRPSMFPRP,-0.15
17,RRIRIRPPRLPRPRPRPRRNPRP,-0.0717
18,RRIRYRPPRLPRPRPRPLMMPRP,-0.692
19,RRIRGRPPRLPRPRPRPHKCPRP,-0.111
20,RRIRCRPPRLPRPRPRPHQNPRP,-0.276
21,RRIRLRPPRLPRPRPRPKAYPRP,-0.402
22,RRIRERPPRLPRPRPRPFYAPRP,-0.526
23,RRIRYRPPRLPRPRPRPIKEPRP,0.0062
24,RRIRIRPPRLPRPRPRPQCFPRP,0.0204
25,RRIRTRPPRLPRPRPRPHDIPRP,2.43
